Tests used:
PA2880 = molecular target: T1, PA2880 (Pseudomonas aeruginosa, UniProt Q9HZW7); experiment: native mass spectrometry (LILBID-MS); conditions: 200 mM ammonium acetate, 0.02% DDM; binding increases dimer population; proton-coupled transport substrate
T1 construct: full length, C-terminal TEV site, eGFP (A206K) and Strep-tag; also tested without eGFP in native MS; expressed in Pseudomonas stutzeri; purified in DDM; dimer

[1] = molecular target: the molecule itself; experiment: native MS; LILBID-MS; protein in 200 mM ammonium acetate with 0.02% (wt/vol) DDM, pH 8; monomer to dimer; some samples with chlorhexidine up to a substrate/protein molar ratio of 8 (more dimer)
[2] = molecular target: the molecule itself; experiment: native MS; LILBID-MS; protein in 200 mM ammonium acetate with 0.02% (wt/vol) DDM, pH series from 5 to 9; monomer to dimer; dimer ratio from deconvoluted zero-charge spectra
native MS = molecular target: the molecule itself; experiment: native MS

Molecule: N=C(NCCCCCCNC(=N)NC(=N)Nc1ccc(Cl)cc1)NC(=N)Nc1ccc(Cl)cc1 [chlorhexidine]
- native mass spectrometry (LILBID-MS) (PA2880): The LILIBID-MS results showed that chlorhexidine was bound to PA2880

B1: PA2880 fused with enhanced green fluorescent protein (PA2880-eGFP), wild type (natural protein)
chain: MTIQPDFNDEPGAFAMTHTHTALDKTLKERIFHALAFEGLAVLLTAPVLSLVMNKPLAHMGALTLMFSTVAMLWNMLFNSLFDRAQRRMGFQRTLQVRVLHAMLFELGLIVVLVPLAAWWLSIGLVEAFLLDMGLILFFLPYTMAFNWSYDVLRARLVESRQAKAAGCDAG
notes: also called wt; wild-type PA2880 with fused eGFP; source: Pseudomonas stutzeri (pL2020-PA2880-eGFP), purified (Strep XT column, SEC, in DDM); not shown: eGFP (A206K variant), C-terminal, kept
- stoichiometry N [1]: 2

B2: PA2880 E38Q variant (natural protein, Pseudomonas aeruginosa strain PAO1, UniProt Q9HZW7 1-171, looked up)
chain: MTIQPDFNDEPGAFAMTHTHTALDKTLKERIFHALAFQGLAVLLTAPVLSLVMNKPLAHMGALTLMFSTVAMLWNMLFNSLFDRAQRRMGFQRTLQVRVLHAMLFELGLIVVLVPLAAWWLSIGLVEAFLLDMGLILFFLPYTMAFNWSYDVLRARLVESRQAKAAGCDAG
notes: PACE family transporter PA2880 of Pseudomonas aeruginosa strain PAO1 with E38Q; source: purified; not shown: eGFP (A206K variant), C-terminal, kept
- stoichiometry N [2]: 2

B3: wild-type PA2880 without fused eGFP (natural protein)
chain: MTIQPDFNDEPGAFAMTHTHTALDKTLKERIFHALAFEGLAVLLTAPVLSLVMNKPLAHMGALTLMFSTVAMLWNMLFNSLFDRAQRRMGFQRTLQVRVLHAMLFELGLIVVLVPLAAWWLSIGLVEAFLLDMGLILFFLPYTMAFNWSYDVLRARLVESRQAKAAGCDAG
notes: also called PA2880 without eGFP
- stoichiometry N (native MS): 2

From article PMC9045395, “Assembly and Functional Role of PACE Transporter PA2880 from Pseudomonas aeruginosa” (Microbiology Spectrum, 2022)
